Experimental findings from paper PMC12175530 are described below.

Data set [1] deals with T1, EseE-His6 (Edwardsiella piscicida) (UniProt A0AAU8P1U3).
T1 sequence: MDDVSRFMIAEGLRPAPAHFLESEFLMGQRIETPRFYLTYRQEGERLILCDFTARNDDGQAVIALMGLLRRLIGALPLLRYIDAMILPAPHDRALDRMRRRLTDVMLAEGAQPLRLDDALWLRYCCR
Nature of the data set: EMSA. The note with it: 20 mM Tris-HCl pH 7.5, 50 mM MgCl2, 5% glycerol, 20 uL, 2 h at 25 C. Background: A gel shift assay detects complexes by their altered migration in electrophoresis.

For data set [2], the target named is T2, EsrB-His6 (Edwardsiella piscicida) (UniProt A0AAU8P338).
T2 sequence: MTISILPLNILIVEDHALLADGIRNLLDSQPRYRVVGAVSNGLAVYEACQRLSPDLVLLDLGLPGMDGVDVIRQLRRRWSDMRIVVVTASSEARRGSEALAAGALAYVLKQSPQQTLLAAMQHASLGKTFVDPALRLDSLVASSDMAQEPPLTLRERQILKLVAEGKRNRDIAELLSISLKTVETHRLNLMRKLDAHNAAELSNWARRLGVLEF
The experiment in a line: EMSA. The note with it: 20 mM Tris-HCl pH 7.5, 50 mM MgCl2, 5% glycerol, 20 uL, 2 h at 25 C.

As to “GCCCGAACACCCGAGAAAAACCAACGTAACTTCAGGTAATTACCCGATATCTTTCGCGCGGGTTCAGCACCCAGAATGGGCCGGGGAAAAAGAGTTCGTCTCCCGATAACCAAACAGCAAACGTTATGCAGCTTCTCGAAAGTTCGCCCGCTAACGGCGTTCTAGCATCACCTCATCGGTAGTCAATAGGAGGTTTCACT (double strand) [escC -200 to -1]”, the binding result in data set [1] and in data set [2] was “binds” in each case.
